The source of these data is patent publication US20230140384A1 (Bristol-Myers Squibb, published 2023).

Residue numbers refer to the chain shown, from its start. In names and notes the source's numbering stands.

Test [1] addresses T1, hCD64 (human, UniProt P12314 16-288).
T1 construct: also called FcγRI
Put plainly: SPR % Rmax, compared with 12D6-IgG1f-P238K. Here is the method:
(§1) The binding of human FcγRs to antibodies was studied by surface plasmon resonance using a Biacore 8K system (GE Healthcare, USA). For these studies, protein A was immobilized on flow cells 1-4 of the CM5 sensor chip using standard ethyl (dimethylaminopropyl) carbodiimide (EDC)/N-hydroxysuccinimide […] chemistry, with ethanolamine blocking, in a running buffer of 10 mM HEPES pH 7.4, 150 mM NaCl, 3 mM EDTA, 0.05% surfactant p20, to a density of ˜3000 RU. Purified 12D6-24-IgG1f antibody (10 μg/mL) or expression supernatants of all other antibodies (diluted to ˜10 μg/ml) were captured on the protein A surface to a density of ˜1000-1200 RU, and the binding of FcγR analytes was tested in running buffer consisting of 10 mM NaPO₄, 130 mM NaCl, 0.05% p20, buffer (PBS-T) pH 7.1 at 25° C., using 120 s association time and 120 s dissociation time at a flow rate of 20 μL/min. The data were analyzed using Biacore 8K evaluation software by determining the measured binding response as a percentage of theoretical maximum binding response for each antibody (% Rmax), based on the level of captured antibody, assuming 100% fractional activity and only taking into account protein mass without glycosylation.

Test [2] has as its target T1, hCD64. Kind of test: SPR, antibody captured on protein A, FcγR as analyte. Here is the method:
as §1
A general note: In SPR one partner is held on a chip, and binding of the other changes the refractive index at the surface.

T1 sequence (P12314 16-288 limits assumed): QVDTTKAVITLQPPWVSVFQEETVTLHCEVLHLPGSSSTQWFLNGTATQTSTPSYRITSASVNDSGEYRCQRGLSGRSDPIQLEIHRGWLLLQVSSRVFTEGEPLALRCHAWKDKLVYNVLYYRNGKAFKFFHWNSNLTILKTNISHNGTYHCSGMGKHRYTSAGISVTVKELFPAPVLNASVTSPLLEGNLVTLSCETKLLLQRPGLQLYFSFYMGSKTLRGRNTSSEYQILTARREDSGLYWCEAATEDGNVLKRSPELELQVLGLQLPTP

B1: 12D6-IgG1f-L235E-P238K (antibody)
heavy: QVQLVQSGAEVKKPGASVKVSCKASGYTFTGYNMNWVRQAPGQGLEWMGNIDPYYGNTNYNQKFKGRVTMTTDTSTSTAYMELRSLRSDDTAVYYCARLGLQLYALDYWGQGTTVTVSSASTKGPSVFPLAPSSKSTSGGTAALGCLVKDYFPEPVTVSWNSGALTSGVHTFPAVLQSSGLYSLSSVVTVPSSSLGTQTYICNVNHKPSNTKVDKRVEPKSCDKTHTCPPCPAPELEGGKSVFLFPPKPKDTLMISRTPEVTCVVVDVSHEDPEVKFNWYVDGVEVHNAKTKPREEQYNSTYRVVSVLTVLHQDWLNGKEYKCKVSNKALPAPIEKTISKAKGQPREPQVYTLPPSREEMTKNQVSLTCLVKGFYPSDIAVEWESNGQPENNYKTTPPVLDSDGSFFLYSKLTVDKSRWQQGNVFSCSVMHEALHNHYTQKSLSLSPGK
light: DIVMTQTPLSLPVTPGEPASISCRSSQSLVHSNANTYLHWYLQKPGQSPQLLIYKLTNRFFGVPDRFSGSGSGTDFTLKISRVEAEDVGVYYCSQSIHVPWTFGGGTKVEIKRTVAAPSVFIFPPSDEQLKSGTASVVCLLNNFYPREAKVQWKVDNALQSGNSQESVTEQDSKDSTYSLSSTLTLSKADYEKHKVYACEVTHQGLSSPVTKSFNRGEC
notes: Tested as expression supernatant; copies: 2 + 2
Consider B1, for which the “fold reduction of binding against P238K alone” value with hCD64 [1] was ~10 fold.

B2: 12D6-IgG1.3f-P238K (antibody)
heavy: QVQLVQSGAEVKKPGASVKVSCKASGYTFTGYNMNWVRQAPGQGLEWMGNIDPYYGNTNYNQKFKGRVTMTTDTSTSTAYMELRSLRSDDTAVYYCARLGLQLYALDYWGQGTTVTVSSASTKGPSVFPLAPSSKSTSGGTAALGCLVKDYFPEPVTVSWNSGALTSGVHTFPAVLQSSGLYSLSSVVTVPSSSLGTQTYICNVNHKPSNTKVDKRVEPKSCDKTHTCPPCPAPEAEGAKSVFLFPPKPKDTLMISRTPEVTCVVVDVSHEDPEVKFNWYVDGVEVHNAKTKPREEQYNSTYRVVSVLTVLHQDWLNGKEYKCKVSNKALPAPIEKTISKAKGQPREPQVYTLPPSREEMTKNQVSLTCLVKGFYPSDIAVEWESNGQPENNYKTTPPVLDSDGSFFLYSKLTVDKSRWQQGNVFSCSVMHEALHNHYTQKSLSLSPGK
light: B1 light
notes: Tested as expression supernatant; IgG1.3f carries L234A, L235E and G237A; copies: 2 + 2
As for B2, in the test with hCD64 [2], the binding result is given as “no binding (tested: 1 µM)”.

B3: 12D6-IgG2.3G1.3f-P238K (antibody)
heavy: QVQLVQSGAEVKKPGASVKVSCKASGYTFTGYNMNWVRQAPGQGLEWMGNIDPYYGNTNYNQKFKGRVTMTTDTSTSTAYMELRSLRSDDTAVYYCARLGLQLYALDYWGQGTTVTVSSASTKGPSVFPLAPCSRSTSESTAALGCLVKDYFPEPVTVSWNSGALTSGVHTFPAVLQSSGLYSLSSVVTVPSSNFGTQTYTCNVDHKPSNTKVDKTVERKSCVECPPCPAPEAEGAKSVFLFPPKPKDTLMISRTPEVTCVVVDVSHEDPEVKFNWYVDGVEVHNAKTKPREEQYNSTYRVVSVLTVLHQDWLNGKEYKCKVSNKALPAPIEKTISKAKGQPREPQVYTLPPSREEMTKNQVSLTCLVKGFYPSDIAVEWESNGQPENNYKTTPPVLDSDGSFFLYSKLTVDKSRWQQGNVFSCSVMHEALHNHYTQKSLSLSPGK
light: B1 light
notes: copies: 2 + 2
With B3, the binding result with hCD64 [2] is on record as “no binding (tested: 1 µM)”.

B4: 12D6-IgG2.5G1.3f-P238K (antibody)
heavy: B3 heavy with C133S, S221C
light: B1 light
notes: copies: 2 + 2
Turning to B4, the binding result with hCD64 [2] is reported as “no binding (tested: 1 µM)”.
